In article PMC6269214 (Biochimica et biophysica acta. Proteins and proteomics, 2018):

Key:
SEC = biological target: the molecule itself; experiment: SEC
SEC-MALS = biological target: the molecule itself; experiment: SEC-MALS

B1: cavsol (full-length, soluble human caveolin-1 variant gen-2d) (other)
chain: MSGGKYVDSEGHLYTVPIREQGNIYKPNNKAMADELSEKQVYDAHTKEIDLVNRDPKHLNDDVVKIDFEDVIAEPEGTHSFDGIWKASFTTFTVTKYWFYRLLSAHEGIPMALSRGVEVAQVSDHHIRADDPCIKSFLIEIQCISRVYSIYVHTVCDPLFEAVGKIFSNVRINLQKEI
SEC
  stoichiometry N: 24 monomers
SEC-MALS
  stoichiometry N: ~90 cav monomers
